Measurements from US20110271408A1 (University of California, published 2011).

Target: T1, HAB1-GAL4 AD (Gal4 activation domain (AD)-PP2C fusion protein encoded by pAD-HAB1) (UniProt Q9CAJ0 1-511, limits assumed)
T1 construct: Prey of the yeast two-hybrid assays; also called HAB1-AD
T1 sequence (looked up): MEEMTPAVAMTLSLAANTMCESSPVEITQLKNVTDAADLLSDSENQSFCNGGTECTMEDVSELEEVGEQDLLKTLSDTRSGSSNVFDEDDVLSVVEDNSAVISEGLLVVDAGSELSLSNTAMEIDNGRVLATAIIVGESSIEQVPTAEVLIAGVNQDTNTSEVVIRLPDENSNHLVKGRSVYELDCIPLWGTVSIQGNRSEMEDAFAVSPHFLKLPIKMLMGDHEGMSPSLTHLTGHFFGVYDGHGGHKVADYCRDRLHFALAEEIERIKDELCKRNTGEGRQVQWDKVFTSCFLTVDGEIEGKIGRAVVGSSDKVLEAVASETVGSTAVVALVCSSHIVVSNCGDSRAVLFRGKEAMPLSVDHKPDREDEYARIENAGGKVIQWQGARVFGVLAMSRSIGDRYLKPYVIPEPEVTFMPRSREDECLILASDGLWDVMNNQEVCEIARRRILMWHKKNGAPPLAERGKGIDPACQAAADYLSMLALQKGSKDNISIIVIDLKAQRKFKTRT
Assay: yeast two-hybrid X-gal staining on increasing concentrations of fenhexamid (Y190 pAD-HAB1)

B1: PYL2 K64R, Y124H, M164I mutant, GAL4 BD fusion (pBD-PYL2) (receptor)
chain: MSSSPAVKGLTDEEQKTLEPVIKTYHQFEPDPTTCTSLITQRIHAPASVVWPLIRRFDNPERYRHFVKRCRLISGDGDVGSVREVTVISGLPASTSTERLEFVDDDHRVLSFRVVGGEHRLKNHKSVTSVNEFLNQDSGKVYTVVLESYTVDIPEGNTEEDTKIFVDTVVKLNLQKLGVAATSAPMHDDE
- binding result: no binding
